Values of other authors in publication PMC8967867.

Target: NCOA3 CID (Homo sapiens) (UniProt Q9Y6Q9)
Sequence (Q9Y6Q9 1023-1093): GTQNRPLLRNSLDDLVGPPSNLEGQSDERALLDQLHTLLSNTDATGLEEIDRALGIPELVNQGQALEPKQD

CBP NCBD, sequence (Q92793 2058-2116): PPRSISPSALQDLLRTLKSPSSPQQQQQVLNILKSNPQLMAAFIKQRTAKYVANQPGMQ

Kd: 200 nM
Substance: CBP NCBD (from UniProt Q92793)
